Values of other authors in publication PMC4610346.

Target: Jun leucine zipper (Homo sapiens) (UniProt P05412)
Sequence (P05412 277-311): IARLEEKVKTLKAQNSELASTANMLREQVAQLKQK

Chain of Fos leucine zipper (P01100 162-196): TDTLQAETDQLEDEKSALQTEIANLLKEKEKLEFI

For “Fos leucine zipper (from UniProt P01100)”, the Kd is listed as 54 nM.
